Changes are numbered by the printed parent chain.
B1: B1.226: anti-MDR1 antibody, Mouse; VH SEQ ID NO:112, VL SEQ ID NO:113 (antibody, listed as Mus musculus, V domains shown)
VH: EVQLVESGGALVKPGGSLKLSCAASGFTFSNYAMSWVRQTPETRLEWVATISSGGSYTYYPDSVKGRFTISRDNAKNTLYLQMSSLRSEDTALYYCARYSNLAWFAYWGQGTLVTVSA
VL: DVVMTQTPLSLPVSLGDQASISCRSSQSIVHSNGNTYLDWYLQKPGQSPKFMIYKVSNRFSGVPDRFSGSGSGTDFTLKISRVEAEDLGVYYCFQGSHVPYTFGGGTKLEIK
B2: B1.188: anti-MDR1 antibody, Mouse; VH SEQ ID NO:66, VL SEQ ID NO:79 (antibody, listed as Mus musculus, V domains shown)
VH: EVMLVESGGALVKPGGSLKLSCAASGFTFSNYAMSWVRQTPEKRLEWVATISSGGSYTYYPDSVKGRFTISRDNARNTLYLQMSSLRSEDTAMYYCARGYGNFAWFAYWGQGTLVTVSA
VL: B1 VL with V2I, V3Q, T7S, N33T, D39E, F51L, M52L, Y101F, G105S
B3: B1.225: anti-MDR1 antibody, Mouse; VH SEQ ID NO:105, VL SEQ ID NO:109 (antibody, listed as Mus musculus, V domains shown)
VH: EVQLVESGGALVKPGGSLKLSCAASGFTFSNYGMSWVRQTPEKRLEWVATISSGGSYTYYPDTVKGRFTISRDNAKNTLHLQMSSLRSEDTALYYCARRGTNDAWFGYWGQGTLVTVSA
VL: DVVMTQTPLSLPVSLGDQASISCRFSQSIVHSNGNTYLEWYLQKPGQSPKLLIYKVSNRFFGVPDRFSGSGSGTDFTLKISRVEAEDLGVYFCFQGSHVPQYTFGGGTKLEIK
B4: B1.129.huH1-huL1(KV3): humanized B1.129; VH SEQ ID NO:63, VL SEQ ID NO:64 (antibody, V domains shown)
VH: EVQLVQSGAEVKKPGASVKVSCKASGYTFSTYVIHWVRQAPGQGLEWIGYIYPYNDYTKYNEKFKDRATLTSDKSTSTAYMELRSLRSDDTAVYYCSRAYYGNLVGYGVDYWGQGTTVTVSS
VL: EIVLTQSPATLSLSPGERATLSCRASSSVSFIYWYQQKPGQSPRPWIFATSNLASGVPARFSGSGSGTDYTLTISSLEPEDFAVYYCHQWGSNLPTFGGGTKLEIK
modifications: humanized sequence
B5: B1.129.huH1-huL1(KV1): humanized B1.129; VH SEQ ID NO:63, VL SEQ ID NO:65 (antibody, V domains shown)
VH: B4 VH
VL: DIQLTQSPSSLSASVGDRVTITCRASSSVSFIYWYQQKPGKSPKPWIFATSNLASGVPSRFSGSGSGTDYTLTISSLQPEDFATYYCHQWGSNLPTFGGGTKLEIK
modifications: humanized sequence
B6: B1.198: anti-MDR1 antibody, Mouse; VH SEQ ID NO:88, VL SEQ ID NO:90 (antibody, listed as Mus musculus, V domains shown)
VH: B1 VH with T43K, R98K, L102Y, A103G, W104R
VL: B1 VL with H31D, D39E, F51L, M52L, S61F
B7: B1.201: anti-MDR1 antibody, Mouse; VH SEQ ID NO:92, VL SEQ ID NO:95 (antibody, listed as Mus musculus, V domains shown)
VH: EVQLVESGGALMKPGGSLKFSCAASGFTFTNYAMSWVRQTPEKRLEWVATISSGGSNTYYSDSVKGRFTISRDNAKTTLYLQMSGLRSEDTALYYCAKFSNFGRFASWGQGTLVTVSA
VL: B1 VL with V3L, S25F, N33S, D39E, K50R, F51L, M52L, S61F, F67I, K79R
B8: B1.184: anti-MDR1 antibody, Mouse; VH SEQ ID NO:74, VL SEQ ID NO:76 (antibody, listed as Mus musculus, V domains shown)
VH: B7 VH with E1G, M12V, F20L, T30S, N57Y, S61P, F99Y, F102Y, A118T
VL: B1 VL with V3L, N33S, D39E, K50R, F51L, M52L, S61F, F67I, K79R
B9: B1.207: anti-MDR1 antibody, Mouse; VH SEQ ID NO:74, VL SEQ ID NO:76 (antibody, listed as Mus musculus, V domains shown)
VH: B7 VH with E1G, M12V, F20L, T30S, N57Y, S61P, F99Y, F102Y, A118T
VL: B1 VL with V3L, N33S, D39E, K50R, F51L, M52L, S61F, F67I, K79R
B10: B1.219: anti-MDR1 antibody, Mouse; VH SEQ ID NO:99, VL SEQ ID NO:101 (antibody, listed as Mus musculus, V domains shown)
VH: B7 VH with M12V, F20L, T30S, G54V, N57Y, S61P, F99Y, F102Y, A118T
VL: DVLMTQTPLSLPASLGDQASISCRSSQSIVHSSGNTYLEWYLQKPGQSPRLLIYKVSNRFFGVPDRISGSGSGTDFTLRISRVEAEDLGVYYCFQGSHVPYTFGGGTKLEIE
B11: B1-open.273(A): anti-MDR1 antibody, Mouse; VH SEQ ID NO:155, VL SEQ ID NO:159 (antibody, listed as Mus musculus, V domains shown)
VH: QVQLQQSGPELVKTGASVKISCKASGYSFSNYYIHWVKQSHGKSLEWIGFISCYNGATFYNQKFKGKATFTVDTSSSTAYMKFNSLTFEDSAVYYCARLPIQFGNFYPMDYWGQGTSVTVSS
VL: QIVLTQSPAIMSASLGERVTMTCTASSSVSSSYLHWYQQKPGSSPKLWIYSTSNLASGVPARFSGSGSGTSYSLTISSMEAEDAATYYCHQYHRSPPTFGAGTKLELK
B12: B1.236: anti-MDR1 antibody, Mouse; VH SEQ ID NO:115, VL SEQ ID NO:116 (antibody, listed as Mus musculus, V domains shown)
VH: EAQLVESGGALVKPGGSLKLSCSASGFTFSNYAMSWVRQTPEKRLEWVATISSGGTNTYYPGSVKGRFTIARDNAKNTLYLLMSSLRSEDTALYFCAKYSNLAWFASWGQGTLVTVSA
VL: B1 VL with D1Q, V2I, M4L, T7S, I29L, N33I, D39E, M52L, Y54S, V90I

Each molecule was assayed on A2780 ADR ovarian carcinoma (assay: A2780 ADR drug-resistant ovarian carcinoma model in nude mice). Conditions: antibody as a single agent.
Format: in vivo
Protocol: Anti-ABCB1 antibodies B1.129, B1.261, B1.223, B1.225, B1.188, B1.28, and B1.226 were tested for effect on growth of tumors in immunodeficient mice. The following cancer cell lines were used for generating tumor models.
A2780 ADR: The adriamycin-resistant cell line A2780ADR has been developed by exposure of the parent A2780 cell line (Sigma catalogue no. 93112519) to adriamycin. A2780ADR is cross-resistant to melphalan and vinblastine. To retain resistance adriamycin has to be added to the media. The cells grow as a monolayer and in suspension in spinner cultures and are tumorigenic in immune deficient mice. Together with the cisplatin-resistant variant A2780cis these lines only differ in their exposure to a single drug and should facilitate the search for molecular changes responsible for the expression of pleiotropic drug resistance in human ovarian cancer.
Nude mice were implanted with A2780 ADR cells to model ovarian carcinoma. Anti-B1 monoclonal antibodies are efficacious in A2780 ADR ovarian carcinoma model in nude mice.

Molecule	tumor volume, single agent
B1	decreased tumor volume
B2	decreased tumor volume
B3	decreased tumor volume

Same assay, conditions: antibody plus paclitaxel

Molecule	tumor volume, in combination with paclitaxel
B1	decreased tumor volume
B2	decreased tumor volume
B3	decreased tumor volume

Each molecule was assayed against T1, human MDR1 (Homo sapiens, UniProt P08183) (assay: Antibody binding/titration to 293T cells overexpressing human MDR1 (FACS)). Conditions: 293T cell line overexpressing human MDR1.
T1 construct: expressed in transfected cells
Protocol: Antibody binding to cells was evaluated by flow cytometry. 293T cells stably transfected to express human ABCB1 (293T_KPB1_OX) were washed once in flow cytometry buffer (PBS + 2% FBS + 0.02% sodium azide), resuspended at 2 x 10 \^6 cells/mL in flow cytometry buffer, and dispensed into 96-well microtiter plates at 0.1 mL/well. In the figures, “B1” refers to ABCB1 (also known as MDR1 or Pgp). Recombinant antibodies were added to cells at 5 ug/mL for initial binding confirmation, or serially diluted from 100 ug/mL in flow cytometry buffer. After incubating cells on ice for 30 min, cells were washed twice with flow cytometry buffer. Bound antibody was detected with PE-labeled F(ab′)2 fragment goat anti-human IgG (Jackson ImmunoResearch) and evaluated on an Attune NxT flow cytometer.
Binding titration of recombinant antibodies to ABCB1 transfectants was performed by 3-fold serial dilution of antibodies from 666.7 nM. Diluted antibody in flow cytometry buffer was incubated with cells on ice for 30 min. After 2 washes with flow cytometry buffer, bound antibody was detected with PE-labeled F(ab′)2 fragment goat anti-human IgG (Jackson ImmunoResearch) diluted 1:200 in flow cytometry buffer and incubated with cells for 20 min on ice. After 2 washes with flow cytometry buffer fluorescence was measured on an Attune NxT flow cytometer. Data were analyzed with GraphPad Prism 8.0 software to determine EC50′s.
(§1) Anti-MDR1 mAb B1.129 and a humanized version thereof were assessed for binding to 293T cell line overexpressing human MDR1 or to 293T cells transfected with cynomolgus MDR1. […] B1.129.hz1 and B1.129.hz2 antibodies are the same as the humanized versions B1.129.huH1-huL1(KV3) and B1.129.huH1-huL1(KV1), respectively, listed in Table 2. FIG. 10C summarizes the binding data for the B1.129 antibody.

Molecule	binding to human MDR1 (hB1)
B4	binds to both hB1 and cB1 with a lower affinity
B5	did not show significant binding

What follows are molecules tested against T2, human MDR1 extracellular loops 1 and 4 (ECD1, ECD4) (Homo sapiens, UniProt P08183) (assay: Epitope mapping with mutant human MDR1 expressed on 293T cells (flow cytometry)). Conditions: extracellular loop 1 and extracellular loop 4.
T2 construct: FLAG (C); expressed in transfected cells; host or cells: 293T
Format: binding
Description: To determine binding of anti-MDR1 mAbs listed in Table 2 to the two major extracellular loops 1 and 4 of MDR1, various mutations were constructed to alter or substitute these two loops. To examine binding to cynomolgus extracellular loops, the extracellular loop 1 and/or loop 4 of cynomolgus MDR1 were grafted (with a C-terminal FLAG tag) to substitute for the human loops in the human MDR1 using standard techniques. To examine binding dependence on the normal human loops, MDR1 variants with deletion 79-102 and deletion 82-99 in loop 1 were also generated. Loop 1 is also referred to as ECD1. Loop 4 is also referred to as ECD4. These mutant MDR1 efflux pump variants were expressed on 293T cells using standard methods to generate cells that could be used to distinguish binding of various anti-MDR1 mAbs. The different cells were incubated with different anti-MDR1 mAbs for about 1 hour at 4° C. The cells were washed twice with FACS buffer (PBS containing 0.5% BSA). Alexa647 labeled goat anti-human antibody was added as a secondary antibody, and the samples were incubated on ice for another 1 hour. Samples were washed again and analyzed by flow cytometry.
FIG. 9 summarizes the findings from preliminary epitope mapping using mutant human MDR1. […] For example, anti-MDR1 mAb B1.129 requires ECD1 and ECD4 for binding to human MDR1. All of the anti-MDR1 antibodies contact ECD4. […] ECD1 refers to the first extracellular domain of human ABCB1, ECD4 refers to the fourth extracellular domain of human ABCB1 and “others” refers to the remainder of the extracellular domains 2-3 and 5-6 of human ABCB1. Only binding to ECD1 and ECD4 was tested.

Molecule	epitope on human MDR1
B6	bind to an epitope comprising extracellular loop 1 and extracellular loop 4
B7	bind to an epitope comprising extracellular loop 1 and extracellular loop 4
B8	bind to an epitope comprising extracellular loop 1 and extracellular loop 4
B9	bind to an epitope comprising extracellular loop 1 and extracellular loop 4
B10	bind to an epitope comprising extracellular loop 1 and extracellular loop 4
B11	bind to an epitope comprising extracellular loop 1 and extracellular loop 4
B12	bind to an epitope comprising extracellular loop 1 and extracellular loop 4

These molecules were tested on cynomolgus MDR1 (assay: Antibody binding to 293T cells transfected with cynomolgus MDR1). Conditions: not given.
Protocol: as §1
Anti-MDR1 mAb B1.28 and a humanized version thereof were assessed for binding to 293T cell line overexpressing human MDR1 or to 293T cells transfected with cynomolgus MDR1.

Chain of cynomolgus MDR1 (as listed by the source): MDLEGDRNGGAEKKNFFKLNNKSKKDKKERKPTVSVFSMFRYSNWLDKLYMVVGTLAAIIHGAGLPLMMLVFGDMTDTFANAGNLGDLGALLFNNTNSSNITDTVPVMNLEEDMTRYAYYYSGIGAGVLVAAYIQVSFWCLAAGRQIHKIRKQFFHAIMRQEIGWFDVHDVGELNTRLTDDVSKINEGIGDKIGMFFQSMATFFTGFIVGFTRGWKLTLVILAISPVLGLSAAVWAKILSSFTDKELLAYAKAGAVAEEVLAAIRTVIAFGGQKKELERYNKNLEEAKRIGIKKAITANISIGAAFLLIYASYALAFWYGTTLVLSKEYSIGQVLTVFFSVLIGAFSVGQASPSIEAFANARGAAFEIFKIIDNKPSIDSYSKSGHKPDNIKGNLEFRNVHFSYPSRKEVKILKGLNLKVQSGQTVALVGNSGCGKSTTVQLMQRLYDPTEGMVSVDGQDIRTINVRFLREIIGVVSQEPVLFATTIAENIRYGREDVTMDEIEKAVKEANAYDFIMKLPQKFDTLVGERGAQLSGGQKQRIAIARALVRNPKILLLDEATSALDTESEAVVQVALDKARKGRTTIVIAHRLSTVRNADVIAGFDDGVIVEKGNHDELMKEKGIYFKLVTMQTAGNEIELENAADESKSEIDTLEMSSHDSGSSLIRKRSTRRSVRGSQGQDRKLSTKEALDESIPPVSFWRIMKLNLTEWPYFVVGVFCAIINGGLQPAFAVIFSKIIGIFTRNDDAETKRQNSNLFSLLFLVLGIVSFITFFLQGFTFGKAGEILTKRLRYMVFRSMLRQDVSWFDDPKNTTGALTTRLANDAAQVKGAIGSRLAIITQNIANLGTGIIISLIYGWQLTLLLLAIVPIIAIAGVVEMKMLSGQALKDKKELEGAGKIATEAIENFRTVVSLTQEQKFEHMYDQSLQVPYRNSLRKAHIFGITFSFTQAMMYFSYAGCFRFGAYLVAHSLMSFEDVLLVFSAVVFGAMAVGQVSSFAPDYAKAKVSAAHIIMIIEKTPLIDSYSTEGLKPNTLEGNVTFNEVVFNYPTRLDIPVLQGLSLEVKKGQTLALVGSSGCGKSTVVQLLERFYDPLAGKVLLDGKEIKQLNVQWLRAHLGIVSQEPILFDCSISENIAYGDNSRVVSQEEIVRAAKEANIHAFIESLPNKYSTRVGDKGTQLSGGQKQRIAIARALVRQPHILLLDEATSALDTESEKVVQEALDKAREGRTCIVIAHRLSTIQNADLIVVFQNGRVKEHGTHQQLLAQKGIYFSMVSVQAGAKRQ

Molecule	binding to cynomolgus MDR1 (cB1)
B4	binds to both hB1 and cB1 with a lower affinity
B5	did not show significant binding

From patent publication US20230203156A1, “ANTI-MDR1 ANTIBODIES AND USES THEREOF” (KENJOCKETY BIOTECHNOLOGY, INC., priority 2020, published 2023)
